This data set is described as follows: protease stability score; higher = more stable; yeast display proteolysis, trypsin and chymotrypsin.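 Also: relative to predicted unfolded state with 0 unfolded-like and 1 meaning tenfold more protease.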
The sequence “HEEKHLMDEALELIKYFTETGDERQLTEYADPNVRIDIDGQRFHGREDWEELVREWNSRFKNLKFNFREIDVQGEFIHTRGELNVNGKRFDVRIVSDKINGRWILHSIHFE” showed a protease stability score of 1.58.
For “HEELELRRRVLENWTKNMITGNEEETKKLADPNVRIDIDGVELHGMDIWYEYMRHIRIKIQHIERKDVKDYDGKVEVDADSHVEMEVNGKLTSTRRKLIFIHLKVDGRWVIHSISFH” the value was 0.823; for “HEENKELEDLLRVWMELVETGDEEELLKLADPDWRLDINGRRIHGRDKVLTWLREHREKLGVDHRHLFLKDVRTVNGRVDANGENEVQVNGKRIVIDIRFHLVVINGRIHMISLRLH”, 1.15.
Consider “HEEQELLEEFVEKLRQTLETGDEHFTRELLDPNVRYVQGDKEWHGRDLAAELNKKLGIKVVDIKHVRYWNGRLDLRGEDQVGDKTTHTILHVDKFNGRWFYKEVIFV”, for which the protease stability score came to 0.721.
With “HEEQKAIEEWAKRLWDVLLTGDEDELHELLDPHVKLEVHVDGKTIHRHGREEVIRFMVEMRIRDFKIEHVQMYGDKLHMNTRSRGIYNGKHRETEVSIIVTVVNGRLKMIIIEIR” the figure was 2.06.
“HEERDLAMHVIKRFIDSTVTGNEQDLTKLLDPHVRIEQGEYHDHGWKYAQLMIERFRNVRIELRIHFIRVQGDKVQVDIDWEVHIGDKVISSRLEMYIIKVNGVWLIRYVIFE” had a protease stability score of 0.854.
With “HEESEDATRFLHQVIHALYTGDEKRFDELLDPRMRLHIGDKQHVGRENVSEFLLHLRIRHVHVHDFRVFDGRLHVDQTLDGEYDGRRREIHFELQITKINGRWFLNHFWIR” the figure was 1.35; with “HEHDQKSNKMSEILMELWKTGNEDWMDKLVDPNARTDIEVGDKRIENVGMEELHKWLFDHHRRIKGIKIIHRTMEVVGDKVTLHLELRFNGVRVEIIIRLIVIDGRVHSQHYEVRTE”, 0.59; with “HEHEEELHRVFKIFLELWTTGDEESMERLLDPNARWVELQGDKELTLIGRENARNRFKEIFDLAGFKYMHLDHEDIQGEKTRFEMTVEYDGRRTRMLLKIVVINGRVKVVKLEER”, 1.32.
For “HEHEEELREFLRLWIEDLVTGNEDSLREFADPNMRIEQGDKEHHGREQFLEIMHRLVREARLEIILRRMNIFDGKANIDGELMIRIGDKHIRHHLRIIILKIDGVWLLKSIHVR” the value was 1.94; for “HEHEEEVRSMTRLFLHAFVTGDWRTIVELIDPNVRTWFNGKDDHGRESLFKNLIRVLEEFGADHVDITIEEMEVQGNKVRVKMIIEVIVGDKDLRLSINQQAYKVDGRWRVKEIIIH”, 0.725.
As to “HEHEELIRWAVELLEHNTRTGDEETLIRLADPNVRMIFDGRDLVGRDWLLEFEERLGADHVELEFRHVRIIDGRVHVNGIMRHEFDGVRVERRTTIIVKKINGRWNNRTVEFR”, the protease stability score came out at 0.529.
With “HEHEELLREYVERLLEIWRTGDEEKFMKNADPNVRIVYGDKDVHGREIWVEHFKRLFEELGFKYIDLRRVELINGVLHVHGNWNVNGRERKTELEFKIIDGRITSVQIRVH” the figure was 1.27; with “HEHEEMSELWLRIFERSVDTGDWNTLIELADPNVRQDYNGREYHGRESFVHTMREDIHRADHIEFHIDRFRVIGDKLDIDGTIIIRINGQTLIYRSHLHILKYDGRWIIKEVRFK”, 1.
Sequence “HEHEKWMEELVRRLKHHLRTGDFETWKELADPNAKVQLVVGDKHVESIGREEMEKWFHDHMMRLGIERFEFNIQSIYVQGEKIHLLGRLHFNGQDERAEIILVVVNGRIKQIHFHLH” displayed a protease stability score of 1.2.
The sequence “HEHEQQVREIAKKLLHALLTGDEDEIYRLIDPNVRLIILVGDKEIHVHGRELVSEVMHKLFRELGVDHWHSRSELLIGNKFHVDTEQHFNGQTFETQVHILVIDGKVHLLTLQIH” showed a protease stability score of 1.88.
In turn, “HEHKEEVDELISMALESMHTGDEETWYRMADPHVRMDVNGQDIHGREEVSEIYVHWLREAGVKHIKIEDVKVINGRVDLHIFSKVNGRFFEYRLISEKIDGQWHIKSVRIL” yielded a protease stability score of 0.399.
In the case of “HEHTKMLLDMHRLWMELWLTGDEHELEKLLDPNVRIIIHVNGVDISIHGRETVRRVLRHEIKRYDHLEINLKRHSAYDGKVESDTEFRVIFDGKRIELDTRIKNIVINGRTKEWIFELE”, the protease stability score is 0.619.

The values are drawn from the NTF2 design screens of Basanta et al. (2020).
